Publication PMC8188405, “When is an obscurin variant pathogenic? The impact of Arg4344Gln and Arg4444Trp variants on protein–protein interactions and protein stability” (Human Molecular Genetics, 2021)
Changes are numbered by the printed parent chain. Numbers in names are those of the source.

T1: titin Z8-Z9 (human, UniProt Q8WZ42-12 1698-1931)
T1 construct: titin, human, domains Z8-Z9, residues 1698 to 1931 based on NM_001267550/NP_001254479 (transcript variant IC); numbers count on: transcript variant IC; The vector encodes His6 followed by a TEV cleavage site; no cleavage is described; source: E. coli BL21-CodonPlus (DE3)-RIPL, purified (Ni-NTA)
T1 sequence (looked up): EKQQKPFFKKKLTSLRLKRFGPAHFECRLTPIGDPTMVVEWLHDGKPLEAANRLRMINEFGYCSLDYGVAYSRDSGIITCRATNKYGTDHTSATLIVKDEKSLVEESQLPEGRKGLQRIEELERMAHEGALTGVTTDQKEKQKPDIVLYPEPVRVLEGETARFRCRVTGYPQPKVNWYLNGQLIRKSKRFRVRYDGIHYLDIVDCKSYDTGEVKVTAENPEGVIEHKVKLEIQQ

B1: human full-length phospholamban (peptide, UniProt P26678 1-52, looked up)
chain: MEKVQYLTRSAIRRASTIEMPQQARQKLQNLFINFCLILICLLLICIIVMLL
notes: phospholamban, human, full length (synthetic); Kept in buffer with Triton X-100; seen on gels as monomeric and pentameric bands, both of which were pulled down by Ig58-Ig59; also called PLN; source: synthetic peptide, bought: Pepscan
B2: obscurin Ig58-Ig59 (wild type) (domain or fragment, human, UniProt Q5VST9 4337-4521, looked up)
chain: TAKNTVVRGLENVEALEGGEALFECQLSQPEVAAHTWLLDDEPVHTSENAEVVFFENGLRHLLLLKNLRPQDSCRVTFLAGDMVTSAFLTVRGWRLEILEPLKNAAVRAGAQACFTCTLSEAVPVGEASWYINGAAVQPDDSDWTVTADGSHHALLLRSAQPHHAGEVTFACRDAVASARLTVLG
modifications: labelled with the Monolith NT Protein Labeling kit RED-NHS (in the MST experiments only)
notes: obscurin, human, domains Ig58-Ig59, residues 4337-4521 based on NM_001098623/NP_001092093 (transcript variant B); The vector encodes His6 followed by a TEV cleavage site; no cleavage is described; The His6 tag holds the protein on Ni-NTA beads in the pull-downs; also called Ig58-Ig59WT; O5859; source: E. coli BL21-CodonPlus (DE3)-RIPL, purified (Ni-NTA); not shown: His6, N-terminal, kept
B3: obscurin Ig58-Ig59 R4344Q, A4484T double variant (domain or fragment, human, UniProt Q5VST9 4337-4521, looked up)
chain: B2 chain with R8Q, A148T
modifications: labelled with the Monolith NT Protein Labeling kit RED-NHS
notes: source: E. coli BL21-CodonPlus (DE3)-RIPL, purified (Ni-NTA)
B4: obscurin Ig58-Ig59 R4344Q (domain or fragment, human, UniProt Q5VST9 4337-4521, looked up)
chain: B2 chain with R8Q
modifications: labelled with the Monolith NT Protein Labeling kit RED-NHS (in the MST experiments only)
notes: The variant occurs in the human population (found in up to 15% of African Americans); also called R4344Q variant; Arg4344Gln; source: E. coli BL21-CodonPlus (DE3)-RIPL, purified (Ni-NTA); not shown: His6, N-terminal, kept
B5: obscurin Ig58-Ig59 R4444W (domain or fragment, human, UniProt Q5VST9 4337-4521, looked up)
chain: B2 chain with R108W
modifications: labelled with the Monolith NT Protein Labeling kit RED-NHS
notes: The variant occurs in the human population; also called R4444W variant; Arg4444Trp; source: E. coli BL21-CodonPlus (DE3)-RIPL, purified (Ni-NTA)
B6: phospholamban transmembrane region PLN(23-52) (peptide, UniProt P26678 23-52, looked up)
chain: QARQKLQNLFINFCLILICLLLICIIVMLL
notes: phospholamban, human, transmembrane region, residues 23-52 (synthetic); source: synthetic peptide, bought: Pepscan

Experiments:
[1] = molecular target: B2; test: MST; obscurin Ig58-Ig59 labelled with RED-NHS (typically 50-100 nM); unlabelled PLN peptides diluted serially; PBS, 0.2% (v/v) Triton X-100, 2 mM DTT; Monolith NT.115; one-site binding model; conditions: both partners purified
titin Z8-Z9 = molecular target: T1, titin Z8-Z9; test: MST; obscurin Ig58-Ig59 labelled with RED-NHS (typically 50-100 nM); unlabelled titin Z8-Z9 or ObB diluted serially; PBS, 2 mM DTT; Monolith NT.115; one-site binding model; conditions: both partners purified

| Kd [1] [µM] | Kd (titin Z8-Z9) [µM] | Binder | other results |
| --- | --- | --- | --- |
| 18.9 |  | B1 |  |
|  | 7.8 | B2 |  |
|  |  | B3 | binding result (titin Z8-Z9): binds |
|  | 6.6 | B4 |  |
|  | 6.4 | B5 |  |
| 58.5 |  | B6 |  |
